Experimental data as given in US7741066B2, “Phosphorylated p68 RNA helicase as a marker for cancer and cancer metastasis” (priority 2005, dated 2010).

What was measured:
[1] = test system: p68 RNA helicase tyrosine phosphorylation; experiment: Tyrosyl phosphorylation of p68 RNA helicase in cancer cells after treatment (immunoprecipitation with PAbp68, Western Blot with p-tyr-100); type: cell-based, human
From the text: After the tissue samples were homogenized, the protein extracts were made from the homogenized sample. The tissue was screened for phosphorylated p68 RNA helicase in two steps. In the first step, the polyclonal antibody PAbp68 was used to isolate p68 RNA helicase from the extracts. In the second step, the antibody p-tyr-100 was used to detect the phosphorylated p68 RNA helicase from the total isolated p68 RNA helicase by the Western Blot. The intensity of the Western Blot signal by the antibody p-tyr-100, in the second step, corresponds to the level of phosphorylated p68 RNA helicase in the sample.
The Western Blots were carried out using antibody p68-rgg (top panel in FIG. 3A-3D) and antibody p-tyr-100 (bottom panel in FIGS. 3A-3D). The p68 RNA helicase was immunoprecipitated by antibody PAbp68.

[2] = test system: p68 RNA helicase threonine phosphorylation; experiment: Threonine phosphorylation of p68 RNA helicase in cancer cells after treatment (immunoprecipitation, Western Blot with 14B3); type: cell-based, human; conditions: for threonine phosphorylation of p68 RNA helicase upon treatment: six different cancer cell lines, Western Blot 14B3; for threonine phosphorylation of p68 RNA helicase upon longer treatment: 30 minutes treatment, data not shown
Experimental: The presence of phosphorylated p68 RNA helicase in cultured cells or tissue samples was examined using immunoprecipitation followed by Western Blots. Immunoblotting also was also performed with a monoclonal antibody against p68 RNA helicase to show the equal amounts or levels of p68 (phosphorylated and unphosphorylated) loaded in the western blotting. Such Western Blots include the use of antibodies to phosphorylated p68 RNA helicase and sodium dodecyl sulphate polyacrylamide gel electrophoresis (SDS-PAGE). Immunoblotting also was performed with a monoclonal antibody against p68 RNA helicase to show the presence of a positive control protein in tumor and normal samples and to indicate that there was no evidence of protein degradation in any of the tissue samples.
A polyacrylamide gel system was employed for separation of proteins. The cell nuclear extracts (80 μl) were diluted to 200 μl with RIPA buffer (160 mM NaCl, 20 mM Tris-HCl, pH 7.5, 1 mM EDTA, 1 mM EGTA, 1 mM DTT, 0.1% Triton X-100, 1% sodium deoxycholate, 0.1% SDS, 1 mM sodium vanadate, and 1 mM PMSF). The antibody PAbp68 then was added to the mixture. The solution subsequently was incubated at 4° C. for 4 hours. Protein A agarose bead slurry (40 μl) then was added and the mixture underwent rotation. The beads were recovered and washed with 5×600 μl RIPA buffer with 0.08% SDS. The precipitated proteins were analyzed by SDS-PAGE followed by Western Blot.
The Western Blot analysis was performed with a commercially available ECL Western Blot and detection kit (Amersham Biosciences). The supernatant from the culture medium of hybridoma cells P68-rgg were used in the blotting experiments at a 5:1 dilution. The polyclonal antibody PAbp68 was used in 1:3000 dilution. The antibodies, PY100 and 14B3 were used with 1:2000 dilution.
The phosphorylation of p68 RNA helicase was investigated using HeLA S3, A549, HEL299, CCD-112CoN, HepG2, and MCF-7 cells. The HeLa S3 and A549 cells were grown in Ham's F12K medium supplemented with 10% fetal bovine serum. The HEL299, CCD-112CoN, HepG2, and MCF-7 cells were maintained in minimum essential medium supplemented with 10% fetal bovine serum. The culture medium contained 2 mM L-glutamine and Earle's BSS adjusted to contain 1.5 g/l of sodium bicarbonate, 0.1 mM of non-essential amino acids, and 1.0 mM sodium pyruvate. The Caco-2 cells were grown in a similar medium condition to that of HEL299 cells but supplemented with 20% fetal bovine serum. The RPMI 1788 and K562 cells were grown in Iscove's modified Dulbecco's medium supplemented with 10% fetal bovine serum. The HEK293 and Hs 578Bst cells were grown in modified Dulbecco's medium containing 10% fetal bovine serum. All cell culture medium contained penicillin (100 U/ml) and streptomycin (100 μg/ml). The cells were grown to 90% confluency prior to performing any experiment.
The phosphorylations of p68 RNA helicase responded differently to different anticancer treatments.
FIGS. 2A and 2B show Western Blots of immunoprecipitated cellular p68 RNA helicase from different cancer cells (indicated). The immuno-blots were carried out using antibody p68-rgg (FIG. 2, top panel in A and B), antibody p-tyr-100 (middle panel in A and B), and antibody 14B3 (FIG. 2, bottom panel in A and B). The + and − represent with or without TNF-α or TRAIL treatments. Tyrosine dephosphorylation and threonine phosphorylation of p68 RNA helicase was present in cancer cells upon the panel (A) TNF-α or panel (B) TRAIL treatments.

[3] = six different cancer cell lines (A549, Caco-2, HepG2, K562, MCF-7, HeLa S3), Western Blot p-tyr-100

Row | Molecule | tyrosine phosphorylation of p68 RNA helicase upon treatment ([1]; MCF-7 breast cancer cells) | threonine phosphorylation of p68 RNA helicase upon treatment [2] | tyrosine phosphorylation of p68 RNA helicase upon treatment [1, 3] | threonine phosphorylation of p68 RNA helicase upon longer treatment [2] | tyrosyl phosphorylation of p68 RNA helicase upon treatment ([1]; HeLa cells)
1 | Cc1ccc(NC(=O)c2ccc(CN3CCN(C)CC3)cc2)cc1Nc1nccc(-c2cccnc2)n1 [STI-571, reference compound] | decreases in the tyrosine phosphorylation level rather than complete dephosphorylation |  |  |  | 
2 | CC(=O)O[C@H]1C(=O)[C@@]2(C)[C@H]([C@H](OC(=O)c3ccccc3)[C@]3(O)C[C@H](OC(=O)[C@H](O)[C@@H](NC(=O)c4ccccc4)c4ccccc4)C(C)=C1C3(C)C)[C@]1(OC(C)=O)CO[C@@H]1C[C@@H]2O [TAXOL®, reference compound] |  | Threonine phosphorylation was not detected | tyrosyl dephosphorylation was not observed |  | 
3 | COc1cc([C@@H]2c3cc4c(cc3[C@@H](O[C@@H]3O[C@@H]5CO[C@@H](C)O[C@H]5[C@H](O)[C@H]3O)[C@H]3COC(=O)[C@H]23)OCO4)cc(OC)c1O [etoposide, reference compound] |  | Threonine phosphorylation was not detected | tyrosyl dephosphorylation was not observed |  | 
4 | TNF-α |  | resulted in phosphorylation of p68 at threonine | led to the dephosphorylation of p68 at tyrosine residue(s) | quickly dephosphorylated again | could be dephosphorylated
5 | TRAIL: TNF Related Apoptosis-Inducer Ligand |  | resulted in phosphorylation of p68 at threonine | led to the dephosphorylation of p68 at tyrosine residue(s) | quickly dephosphorylated again | 
